The chains are these.
T1: Recombinant, untagged TNF-gamma-beta protein (aa 72-251) from E. coli (human, UniProt O95150 72-251)
T1 construct: also called TL1β; recombinant TL1β protein
T1 sequence (looked up): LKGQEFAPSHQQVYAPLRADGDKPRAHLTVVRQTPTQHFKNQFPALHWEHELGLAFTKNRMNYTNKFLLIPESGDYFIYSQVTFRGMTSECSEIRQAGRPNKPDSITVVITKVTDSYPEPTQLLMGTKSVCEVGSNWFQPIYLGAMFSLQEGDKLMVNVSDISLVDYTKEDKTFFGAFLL

T2: TNFR-6 alpha-Fc fusion protein (full length TNFR-6 alpha, amino acids 1-300 of SEQ ID NO:2, fused to the Fc … (human, UniProt O95407 30-300))
T2 construct: Construct M1-H300 fused to Fc (pA2Fc:TR6, baculovirus/Sf9); the secreted protein starts at Val 30 and is a disulfide-linked dimer; also called TNFR6-Fc; TR6-Fc
T2 sequence: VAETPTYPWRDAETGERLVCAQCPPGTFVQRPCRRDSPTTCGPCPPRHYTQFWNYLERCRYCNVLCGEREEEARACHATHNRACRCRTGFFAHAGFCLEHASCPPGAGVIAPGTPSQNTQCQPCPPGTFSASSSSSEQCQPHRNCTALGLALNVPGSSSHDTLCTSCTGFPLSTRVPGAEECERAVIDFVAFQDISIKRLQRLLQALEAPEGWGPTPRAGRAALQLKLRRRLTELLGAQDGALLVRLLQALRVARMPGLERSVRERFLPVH

T3: DR6-Fc (UniProt O75509 42-349, limits assumed)
T3 construct: extracellular domain
T3 sequence (looked up): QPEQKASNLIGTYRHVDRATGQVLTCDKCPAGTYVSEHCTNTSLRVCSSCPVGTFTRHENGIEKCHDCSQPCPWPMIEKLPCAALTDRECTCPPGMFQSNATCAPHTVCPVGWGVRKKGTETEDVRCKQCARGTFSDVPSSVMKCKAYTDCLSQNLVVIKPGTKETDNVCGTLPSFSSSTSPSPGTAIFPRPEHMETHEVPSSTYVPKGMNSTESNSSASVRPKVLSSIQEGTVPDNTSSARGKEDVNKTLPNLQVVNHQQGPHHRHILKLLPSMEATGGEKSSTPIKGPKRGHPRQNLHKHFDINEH

T4: Soluble human FLAG-FasL (synthesized at HGS) (human, UniProt P48023 130-281, limits assumed)
T4 construct: called trimerized in the kinetic BIAcore run; cross-linked with FLAG antibody in the cell assays; also called FasL-Flag; trimerized FLAG-FasL
T4 sequence (looked up): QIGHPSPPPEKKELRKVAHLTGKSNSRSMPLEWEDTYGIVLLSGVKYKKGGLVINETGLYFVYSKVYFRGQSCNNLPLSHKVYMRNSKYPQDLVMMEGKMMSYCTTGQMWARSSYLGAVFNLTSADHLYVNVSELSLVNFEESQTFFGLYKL

T5: Murine FasL on transfected murine L929 cells (murine, UniProt P41047 1-279)
T5 sequence (looked up): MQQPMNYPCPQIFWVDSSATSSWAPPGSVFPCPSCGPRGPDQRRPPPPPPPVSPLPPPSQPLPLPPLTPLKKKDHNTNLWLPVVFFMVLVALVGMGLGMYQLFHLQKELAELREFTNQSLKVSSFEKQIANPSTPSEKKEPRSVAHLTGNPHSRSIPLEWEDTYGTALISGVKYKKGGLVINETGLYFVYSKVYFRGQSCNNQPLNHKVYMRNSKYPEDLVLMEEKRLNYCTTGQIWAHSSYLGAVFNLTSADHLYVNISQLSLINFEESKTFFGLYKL

B1: BCMA-Fc (Fc fusion, human, UniProt Q02223 1-54, looked up, not shown: a dimerising Fc or GST)
chain: MLQMAGQCSQNEYFDSLLHACIPCQLRCSSNTPPLTCQRYCNASVTNSVKGTNA
notes: Control surface in the BIAcore analysis
B2: Human LIGHT, full length, on cells (stably transfected 293F cells; endogenous on activated human T cells) (ligand, UniProt O43557 1-240, looked up)
chain: MEESVVRPSVFVVDGQTDIPFTRLGRSHRRQSCSVARVGLGLLLLLMGAGLAVQGWFLLQLHWRLGEMVTRLPDGPAGSWEQLIQERRSHEVNPAAHLTGANSSLTGSGGPLLWETQLGLAFLRGLSYHDGALVVTKAGYYYIYSKVQLGGVGCPLGLASTITHGLYKRTPRYPEELELLVSQQSPCGRATSSSRVWWDSSFLGGVVHLEAGEKVVVRVLDERLVRLRDGTRSYFGAFMV
notes: whole, on cells; also called LIGHT-transfectants; cell membrane LIGHT
B3: Human TR2-Fc (extracellular domain of TR2, aa1-192, fused to the Fc domain of human IgG1) (Fc fusion, not shown: a dimerising Fc or GST)
chain: LPSCKEDEYPVGSECCPKCSPGYRVKEACGELTGTVCEPCPPGTYIAHLNGLSKCLQCQMCDPAMGLRASRNCSRTENAVCGCSPGHFCIVQDGDHCAACRAYATSSPGQRVQKGGTESQDTLCQNCPPGTFSPNGTLEECQHQTKCSWLVTKA
notes: From CHO cells
B4: TNF-gamma-beta, full length, on transfected cells (ligand, human, UniProt O95150 1-251, looked up)
chain: MAEDLGLSFGETASVEMLPEHGSCRPKARSSSARWALTCCLVLLPFLAGLTTYLLVSQLRAQGEACVQFQALKGQEFAPSHQQVYAPLRADGDKPRAHLTVVRQTPTQHFKNQFPALHWEHELGLAFTKNRMNYTNKFLLIPESGDYFIYSQVTFRGMTSECSEIRQAGRPNKPDSITVVITKVTDSYPEPTQLLMGTKSVCEVGSNWFQPIYLGAMFSLQEGDKLMVNVSDISLVDYTKEDKTFFGAFLL
notes: whole, on cells; also called TL1β
B5: Full-length human TR6 (without Fc) (receptor)
chain: T2 sequence
notes: Full-length cDNA expressed in Sf9 cells with the natural leader; also called TR6 non-Fc; TR6-non-Fc
B6: Human LIGHT protein, natural secreted form (aa83-240) (ligand, UniProt O43557 83-240, looked up)
chain: LIQERRSHEVNPAAHLTGANSSLTGSGGPLLWETQLGLAFLRGLSYHDGALVVTKAGYYYIYSKVQLGGVGCPLGLASTITHGLYKRTPRYPEELELLVSQQSPCGRATSSSRVWWDSSFLGGVVHLEAGEKVVVRVLDERLVRLRDGTRSYFGAFMV
notes: range 83-240; also called soluble LIGHT
B7: DR3-Fc (extracellular domain of human DR3, aa 1-199, fused to the Fc domain of human IgG1) (Fc fusion, UniProt Q93038 25-199, looked up, not shown: a dimerising Fc or GST)
chain: QGGTRSPRCDCAGDFHKKIGLFCCRGCPAGHYLKAPCTEPCGNSTCLVCPQDTFLAWENHHNSECARCQACDEQASQVALENCSAVADTRCGCKPGWFVECQVSQCVSSSPFYCQPCLDCGALHRHTRLLCSRRDTDCGTCLPGFYEHGDGCVSCPTSTLGSCPERCAAVCGWRQ
notes: range 1-199

Assay [1] concerns the target T1, Recombinant, untagged TNF-gamma-beta …. Kind of assay: BIAcore, receptor-Fc immobilized. As to the method:
(§1) TNFR-Fc were covalently immobilized to the BIAcore sensor chip (CM5 chip) via amine groups using N-ethyl-N′-(dimethylaminopropyl) carbodiimide/N-hydroxysuccinimide chemistry. […] The amount of bound protein was determined during washing of the flow cell with HBS buffer (10 mM HEPES, pH 7.4, 150 mM NaCl, 3.4 mM EDTA, 0.005% Surfactant P20). The flow cell surface was regenerated by displacing bound protein by washing with 20 microliters of 10 mM glycine-HCl, pH 2.3. For kinetic analysis, the on and off rates were determined using the kinetic evaluation program in BIAevaluation 3 software using a 1:1 binding model and the global analysis method.
Background: SPR reads the build-up and loss of mass on a sensor chip optically.

Assay [2] deals with T2, TNFR-6 alpha-Fc fusion protein (full …). Kind of assay: conclusion from flow cytometry.
Assay [3] addresses B5. Kind of assay: flow cytometry competition on activated human T cells. A general note: Flow cytometry measures light scatter and fluorescence of single cells or particles in a stream.
The target in assay [4] is B6. Kind of assay: BIAcore, TR2-Fc immobilized, LIGHT in flow; TR2-Fc. As to the method: (§2) The amount of bound protein was determined during washing of the flow cell with HBS buffer (10 mM HEPES, pH 7.4, 150 mM NaCl, 3.4 mM EDTA, 0.005% Surfactant P20). The flow cell surface was regenerated by washing off the bound proteins with 20 microliters of 10 mM glycine-HCl pH 2.3. […] The on- and off-rates were determined according a kinetic evaluation program in the BiaEvaluation 3 software using a 1:1 binding model and the global analysis method.

The target in assay [5] is T2, TNFR-6 alpha-Fc fusion protein (full …). Kind of assay: FACS on transfected cells.
A further assay has as its target T3, DR6-Fc. Kind of assay: flow cytometry on HEK293F cells expressing full length TNF-gamma-beta. On the procedure:
(§3) One million cells, in 0.1 ml of FACS buffer (PBS, 0.1% BSA, 0.1% NaN₃), were incubated with 0.1-1 microgram of protein or antibody at RT for 15 min. The cells were washed with 3 ml of FACS buffer, reacted with biotinylated primary antibody, and stained with PE-conjugated secondary antibody at RT for 15 min. Cells were then washed again, resuspended in 0.5 microgram/ml of propidium iodide, and live cells were gated and analyzed on a FACScan using the CellQuest software (BD Biosciences).

Assay [6] addresses T4, Soluble human FLAG-FasL (synthesized at …). Kind of assay: BIAcore.
Assay [7] addresses B6. Kind of assay: BIAcore.
Assay [8] has as its target T5, Murine FasL on transfected murine L929 …. Kind of assay: cell-based or functional assay.
For assay [9], the target named is B4. Kind of assay: flow cytometry competition, competitor DR3-Fc. On the procedure: as §3
Assay [10] has as its target T2, TNFR-6 alpha-Fc fusion protein (full …). Kind of assay: BIAcore; TR6-Fc. As to the method:
as §2

The target of assay [11] is B5. Kind of assay: BIAcore; TR6 without Fc. As to the method: as §2
In assay [12] the target is T2, TNFR-6 alpha-Fc fusion protein (full …). Kind of assay: BIAcore, receptor immobilized, LIGHT in flow; TR6-Fc. As to the method:
as §2

The target of assay [13] is T1, Recombinant, untagged TNF-gamma-beta …. Kind of assay: BIAcore, DR3-Fc immobilized, TNF-gamma-beta 3-370 nM in flow; DR3-Fc. On the procedure:
as §1

For assay [14] the target is unchanged. Kind of assay: BIAcore, three batches of TNF-gamma-beta; DR3-Fc, average of three batches. As to the method:
as §1

As to B1, the binding result in [1] was “no binding (tested: 3-370 nM)”.
As to B2, the binding result in assay [2] and in assay [3] was “binds” in each case.
B3: binding in assay [4] was put at a Kd of 4.56 nM.
Turning to B4, the figures for the binding result (in [5]; in the assay with DR6-Fc) were “binds” and “no binding”, respectively.
For B5, the “fold reduction in affinity against TR6-Fc” value in assay [6] is 4 fold. Moreover, the “fold higher off rate against TR6-Fc” value in assay [7] is roughly 2 fold. Besides, the “IC50 of inhibition of killing of A20 target cells by murine FasL-transfected L929 cells” value in assay [8] is roughly 1 ng/mL. Also, the “molar ratio of TR6 to DR3-Fc at which no DR3-Fc binding was detected” value in assay [9] is 2 molar ratio (TR6:DR3-Fc).
In the case of B6, the koff (usually the first-order rate constant of dissociation) came to 0.0023 s⁻¹ in assay [10] and 0.00483 s⁻¹ in assay [11]. Also, the results for the kon in [10] and in assay [11] were 422000 M⁻¹ s⁻¹ and 338000 M⁻¹ s⁻¹, respectively. The Kd (commonly a measure of binding affinity in units of concentration) was determined as 14.3 nM in assay [11] and 5.46 nM in assay [12].
Turning to B7, in assay [13], the koff came out at 0.00413 s⁻¹ and the kon (commonly the second-order rate constant of association) was determined as 639000 M⁻¹ s⁻¹. The Kd in assay [14] is 6.45 nM.

The record behind these values is US20060234285A1 (Human Genome Sciences, published 2006).
